Data: the supplement of paper PMC9170038

Tested on: MS2 coat protein
Assay: apparent KD of MS2 coat protein; designed switch direction (-1 OFF switch, 1 ON switch): -1; higher = weaker reporter binding
Procedure, shortened: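 Normalised cluster fluorescence was curve-fitted, and each design's median over clusters is its apparent KD. Before this, SNAP-549-labelled MS2 coat protein was titrated from 0.7 or 1.5 nM, doubling to 3 µM, over RNA switches transcribed on Illumina chips by stalled E. coli RNA polymerase. Titrations had no input, 200 uM small-molecule ligand, or an oligonucleotide input, and steps lasted 0.8–1.5 h (lowest) to 10–20 min (highest).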

[1] = Eterna round: R95, input ligand: microRNA oligo, concentration not stated
[2] = input ligand: microRNA oligo, concentration not stated
[3] = Eterna round: R95, input ligand: FMN 200 uM
[4] = Eterna round: R95, input ligand: none

Sequence	apparent KD of MS2 coat protein (input ligand: FMN 200 uM)	apparent KD of MS2 coat protein (input ligand: none)	apparent KD of MS2 coat protein [1]	apparent KD of MS2 coat protein [2]	apparent KD of MS2 coat protein [3]	apparent KD of MS2 coat protein [4]
AAGUCGACGGUGAGGAUAUUGGUUGAACGACAGAUUAAGAAGGUACAUGAGGAUCACCCAUGUGGGUAACGUUG [Brourd's EX4 #76] (Eterna round: R97, puzzle: Brourd's mod of Exclusion 4)	108 nM	86.2 nM	–	–	–	–
CCAUCGAGUGUGAGGAUAUGCUGGUCCUUGGAUCAGCAGAAGGCACAUGAGGAUCACCCAUGUGGAGACGGUGG [JL bmx4 3.18] (puzzle: Brourd's mod of Exclusion 4)	–	–	44.3 nM	–	–	–
GCUUUUGGGCAAGGAUAUCCUGCGCUGUUCUGGUUCGUGUCUGUCACAUGAGGAUCACCCAUGUGGGAGAAGGUGCCUGUGGUG [Design 70] (Eterna round: R96, puzzle: Exclusion NG 2)	17 nM	19.2 nM	–	14.7 nM	–	–
ACAUGAGGAUCACCCAUGUACACGUAAUGGCUCAUGUAGAGUCAGGAUAUGCGUGGCGAACUCGCGCAGAAGGGACAAGACUGG [Deportation 21 - Jieux - Exclusion NG 3] (Eterna round: R96, puzzle: Exclusion NG 3)	27.1 nM	23 nM	–	18.6 nM	–	–
UUUAUGUCAGGAUAUGAUUAGAUCUACUUUUGUAGAUCUAAUCAGAAGGGACAUGAGGAUCACCCAUGUAGUUU [Ex4 - 3 - 14] (puzzle: Exclusion 4)	–	–	116 nM	–	–	–
AAAAUGUCAGGAUAUGUGAAAGAAAAGAAAAGAAAAGAAAAACAGAAGGGACAUGAGGAUCACCCAUGUAAGAA [Exclusion 4 #3] (puzzle: Exclusion 4)	–	–	25.2 nM	–	21.6 nM	27.1 nM
AUUAAUGUCAAAGGAUAUCAGCACGUUUAGUGCUGAGAAGGUUGAACAUGAGGAUCACCCAUGUAGAUCAUUAAUAAUUUAAUU [ENG1/10-B1] (Eterna round: R96, puzzle: Exclusion NG 1)	23.5 nM	18.2 nM	–	18.9 nM	–	–
GAGUGACAUGAGGAUCACCCAUGUGAGGAUAUGCGAUGGACCAAAUUAACAAUAGAAGGCAGAAGGCGCAUAAA [Exclusion 1 V9] (puzzle: Exclusion 1)	–	–	34.8 nM	–	41.4 nM	41.1 nM
CGCUGGACAGGAUAUGUUCUUGGGCACUUGAGGAUCACCCAAGUCAUCAAGAACUCAGGCACAGAAGGGUUUAUGG [salish99_ex5_r4_018] (Eterna round: R97, puzzle: Exclusion 5)	41.5 nM	18.9 nM	–	–	–	–
CUGUGCAUAGGAUAUGAAAGAAGAAACAUGAGGAUCACCCAUGUAGCCUCAAAUCUUAUGUCAGAAGGAUGCGUUA [Default title] (Eterna round: R97, puzzle: Exclusion 5)	15.9 nM	13.6 nM	–	–	–	–
CCAAGCUUAUUCAUUAACAACAUGAGGAUCACCCAUGUGUAGGCAAUUAUGUUUGGGCUCUUUAGUGCUCGUCUUAU [Sensor-V1 #22] (Eterna round: R97, puzzle: Sensor, turn-off variant 1)	14.7 nM	14.7 nM	–	–	–	–
AGUGGCCGAGGAUAUACAUGAGGAUCACCCAUGUUUUAUGUUGAAACGUUAGCGGCCUGUAGAAGGCGGACCUU [Eternabot (L2) Solution 76] (Eterna round: R97, puzzle: Exclusion 3)	17.5 nM	19.3 nM	–	–	–	–
AGUACUGACACGUCGGUGUUAGUACAAUAAGCUUGUGAAACAUGAGGAUCACCCAUGUCCUCAUAAGCUCGUCUUAU [salish99_TOv2_r3_081] (Eterna round: R96, puzzle: Sensor v3, turn-off variant 2)	15.1 nM	17.2 nM	–	481 nM	–	–
ACAUGAGGAUCACCCAUGUGACAAUAAUGGCUGAUACAGAAACAGGAUAUUCGUGAAUAUCUAACGAAGAAGGGUUAUGACUGG [Deportation 68 - Jieux - Exclusion NG 3] (Eterna round: R96, puzzle: Exclusion NG 3)	36.4 nM	44 nM	–	41 nM	–	–
GCACUGCGAGGAUAUACAUGAGGAUCACCCAUGUGUCGGCAGACAUGGUUAAUCUAAGGUAGAAGGCGCGUAAA [JR_Ex3_Sub004] (Eterna round: R97, puzzle: Exclusion 3)	16.3 nM	993 nM	–	–	–	–
UUGAGACAUGAGGAUCACCCAUGUAAGGAUAUAGUCGUCUGGUGGUCUCGGGUGGUGGCUAGAAGGUGCGUGCG [-15.7, 14.3 kcal, A 20%] (Eterna round: R97, puzzle: Exclusion 1)	241 nM	239 nM	–	–	–	–
CGGUCGUCGUGAGGAUAUACAUGAGGAUCACCCAUGUUUCUCGGGUCGGUCGUCCGGUCGGUGGUGUAGAAGGCGCGGUGGCUG [random 3, A 14%] (Eterna round: R96, puzzle: Exclusion NG 2)	125 nM	100 nM	–	95.6 nM	–	–

Sequence	apparent KD of MS2 coat protein (input ligand: FMN 200 uM)	apparent KD of MS2 coat protein (input ligand: none)	apparent KD of MS2 coat protein [1]	apparent KD of MS2 coat protein [2]	apparent KD of MS2 coat protein [3]	apparent KD of MS2 coat protein [4]
ACAUUGUGAGGAUAUCCGAAGAAGGUCCGGAAGGUUCGGGUGGAGAAGGCACAUGAGGAUCACCCAUGUGUGGG [Excls4-VIII] (puzzle: Exclusion 4)	–	–	39.3 nM	–	–	–
AGCACUAUCACGAAAGUGAUAGUGCAAUAAGCAAGUGAAACAUGAGGAUCACCCAUGUCCUCAAUUGCUCGUCUUAU [Mat - Sensor v2 -ver2- JL mod - D81] (Eterna round: R96, puzzle: Sensor v2, turn-off variant 2)	49.3 nM	51.2 nM	–	807 nM	–	–
GCGGAGUGAGGAUAUAGAACUUAAGGUACCAAUUAGGUACCCUAGAAGGCACAUGAGGAUCACCCAUGUACCGC [Eli x4 4.01] (Eterna round: R97, puzzle: Exclusion 4)	26.5 nM	28.6 nM	–	–	–	–
CGGGUGAAUAGAGGAUAUAGUACAUGAGGAUCACCCAUGUAAUAAAUGAGAAUUUCGAAUGUAAUCUAGAAGGCUAGAAAACCC [Ostracism 99 - Jieux - Exclusion NG 2] (Eterna round: R96, puzzle: Exclusion NG 2)	367 nM	274 nM	–	150 nM	–	–
CAACCUCACGAGGAUAUCAAUGCUAGUUGGCGUUGAGAAGGCGUAACAUGAGGAUCACCCAUGUGGUGGCGUAU [Eternabot (Original) Solution 26] (Eterna round: R97, puzzle: Exclusion 6)	1020 nM	921 nM	–	–	–	–
AUUUUAAUAUAGGAUAUCGAAAUAAUUAUUUAACGAGAAGGAUGAACAUGAGGAUCACCCAUGUGGUAUCAUGG [Mat - Exclusion 6 - JL Mod - D32] (puzzle: Exclusion 6)	–	–	159 nM	–	178 nM	163 nM
CUCGUGUGAGGAUAUCUAUUCCACGGACGGGAGUCUUGAUGAGAGAAGGCACAUGAGGAUCACCCAUGUAAUAA [Laveinxe] (puzzle: Exclusion 4)	–	–	105 nM	–	–	–
ACGCGUGAAGGAUAUACGCGGGCCCAAGCGGAUCACACCGCACAUGAGGAUCACCCAUGUAGAAGGUCGCAAAA [r4x2dt3] (Eterna round: R97, puzzle: Exclusion 2)	33.4 nM	13.9 nM	–	–	–	–
GAUAGAGAGCAGGAUAUCAUAGAAAUGUAUGAAUGAGAAGGGCUCACAUGAGGAUCACCCAUGUGGUCCUAGAU [JL Dibiri mod 19] (puzzle: Exclusion 6)	–	–	22.4 nM	–	135 nM	21.1 nM
AGAAGUAGUAACCGAUCCUACAUGAGGAUCACCCAUGUAGCUAGACGUGCACGCGAAGCUCGUCAGACUACCAGAUG [salish99_TOv1_r3_023] (puzzle: Sensor v3, turn-off variant 1)	–	–	273 nM	–	298 nM	212 nM
CAGUACUGAGGAUAUACAUGAGGAUCACCCAUGUGCCUAAGCUAGGAUACUAGCAUUAGUAGAAGGCAGUACUG [Fiskers Ex 3 828 mod 15] (puzzle: Exclusion 3)	–	–	13.6 nM	–	–	–
AGCUGUGGCCGAGGAUAUCCACAUGAGGAUCACCCAUGUGAAUAGGGAAUUAACCCAUAACCGUGGGAGAAGGCGGUCUCAGCA [Eli eng2 - 049] (Eterna round: R96, puzzle: Exclusion NG 2)	55.1 nM	82.1 nM	–	48.6 nM	–	–
UUUUACAUGCUGAGAUCCUACAUGAGGAUCACCCAUGUGGUCCGGAAAAUUUUGUCACCGGAUUUUGCUCGUCUUGU [salish99_S_TOV1_R5_102] (Eterna round: R97, puzzle: Sensor, turn-off variant 1)	69.5 nM	112 nM	–	–	–	–
CGGACCCGAGGAUAUCGUAAACCCGACAUGAGGAUCACCCAUGUCAUCCUCACGGCGCCACGAGAAGGCGGUGUUA [Ansolaedra] (puzzle: Exclusion 5)	–	–	21.8 nM	–	–	–
AAGUACCGUCACGAUAGUGAUGGUACAACAAGCGAAUGUACAUGAGGAUCACCCAUGUCCUCUUUUGCUCGUCUUAU [Sensor 3 - 97] (puzzle: Sensor v3, turn-off variant 2)	–	–	31.9 nM	–	130 nM	155 nM
AGCUGUGGCCGAGGAUAUCACAUGAGGAUCACCCAUGUACAUGAUUAAGCCUGGUAACAGGCUCAUGAGAAGGCGGUCUCAGCA [Eli eng2 - 014] (Eterna round: R96, puzzle: Exclusion NG 2)	12 nM	20.6 nM	–	13.1 nM	–	–
